Here are results for four molecules from US20200164032A1 (WASHINGTON UNIVERSITY, published 2020).

The target in one test is T1, human CCL3 (human, UniProt P10147 23-92).
T1 construct: also called hCCL3
T1 sequence: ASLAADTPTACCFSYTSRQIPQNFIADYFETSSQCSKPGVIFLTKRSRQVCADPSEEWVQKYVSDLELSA
Put plainly: SPR, R17 264GG(G)DS267 on CM5 chip, hCCL3 injected.

The next test has as its target T2, murine CCL3 (mouse, UniProt P10855 24-92).
T2 sequence: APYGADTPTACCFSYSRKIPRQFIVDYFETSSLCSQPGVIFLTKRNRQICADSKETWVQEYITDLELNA

The target in a further test is T3, murine CCL2 (mouse, UniProt P10148 24-148).
T3 construct: also called mCCL2
Put plainly: SPR, mutant R17 on CM5 chip.

Test [1] has as its target CCL2 (species not given). Put plainly: SPR, R17 variant on CM5 chip; column KDeq (nM).
Test [2] concerns the target CCL2 (species not given). Put plainly: SPR, R17 variant on CM5 chip; column kd x 10^-3 s-1.
In test [3] the target is CCL2 (species not given). Put plainly: SPR, R17 variant on CM5 chip; column KD (nM), kinetic.
Test [4] deals with CCL2 (species not given). Put plainly: SPR, R17 variant on CM5 chip; column ka x 10^6 M-1s-1.
Test [5] deals with CCL3 (species not given). Put plainly: SPR, R17 variant on CM5 chip; column KDeq (nM); ka, kd, KD printed n/a.

T3 sequence (P10148 24-148 limits assumed): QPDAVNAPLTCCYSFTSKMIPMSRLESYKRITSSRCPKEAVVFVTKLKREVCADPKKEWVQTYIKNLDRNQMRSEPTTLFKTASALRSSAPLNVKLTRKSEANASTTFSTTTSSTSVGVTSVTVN

B1: R17 264GG(G)DS267 chemokine null mutant (264LIDS267 replaced by 264GG(G)DS267, with a glycine insert (receptor)
chain: GPVGEPVASEINEASKVSSRLLTQDILFRKDRQATISLPIKLPVEDIITQTCDKITYGPLKFLDLLEKETAVLPLSTDITCPACLGRAVLVGKWECPAHVAVNESDLTVFGPNKEEHVPQFVTVQQPSDGKMQRLFFAKFLGTEESLAVLRVPGPDGHLCIQEALIHFKELSGAGVCSLWKANDSREEGLEMKQVDCLETTVLENQTCIATTLSKKIYHRLYCGERLMTGGQVSTRVLLTALGFYKRQPYTFHRVPKGMVYVHGGGDSGSEDYMEYSECEEVTPGRYEDKQISYTFYTDLFQTADGEPVLASVWGTSGLKDSAYESCAFVIPTKGRRKLVPRRIMSKCYPFRLTYHPSTMTVRLDVRVEKHHGATDQGFVFLKMESGTYSEGREYYLDRVLWGEDSSTNNVLQ
For B1, in the test with human CCL3, the binding result is on record as “no binding (tested: 100 nM)”.

B2: R17 266NAGAQ270 (R17 with 266DSGSE270 mutated to 266NAGAQ270), C-terminal His construct (receptor)
chain: GPVGEPVASEINEASKVSSRLLTQDILFRKDRQATISLPIKLPVEDIITQTCDKITYGPLKFLDLLEKETAVLPLSTDITCPACLGRAVLVGKWECPAHVAVNESDLTVFGPNKEEHVPQFVTVQQPSDGKMQRLFFAKFLGTEESLAVLRVPGPDGHLCIQEALIHFKELSGAGVCSLWKANDSREEGLEMKQVDCLETTVLENQTCIATTLSKKIYHRLYCGERLMTGGQVSTRVLLTALGFYKRQPYTFHRVPKGMVYVHLINAGAQDYMEYSECEEVTPGRYEDKQISYTFYTDLFQTADGEPVLASVWGTSGLKDSAYESCAFVIPTKGRRKLVPRRIMSKCYPFRLTYHPSTMTVRLDVRVEKHHGATDQGFVFLKMESGTYSEGREYYLDRVLWGEDSSTNNVLQ
In the test with murine CCL3, B2 came in with a Kd of 2.9 nM, a dissociation rate constant (koff) of 0.061 s⁻¹, an association rate constant (kon) of 3.1e+07 M⁻¹ s⁻¹ and a t1/2 of 11.2 s. Further, the binding result in the test with murine CCL2 is given as “no binding”.

B3: R17GAG1 (R17 with residues 29 to 32 RKDR mutated to EDDE), C-terminal His construct (receptor)
chain: GPVGEPVASEINEASKVSSRLLTQDILFEDDEQATISLPIKLPVEDIITQTCDKITYGPLKFLDLLEKETAVLPLSTDITCPACLGRAVLVGKWECPAHVAVNESDLTVFGPNKEEHVPQFVTVQQPSDGKMQRLFFAKFLGTEESLAVLRVPGPDGHLCIQEALIHFKELSGAGVCSLWKANDSREEGLEMKQVDCLETTVLENQTCIATTLSKKIYHRLYCGERLMTGGQVSTRVLLTALGFYKRQPYTFHRVPKGMVYVHLIDSGSEDYMEYSECEEVTPGRYEDKQISYTFYTDLFQTADGEPVLASVWGTSGLKDSAYESCAFVIPTKGRRKLVPRRIMSKCYPFRLTYHPSTMTVRLDVRVEKHHGATDQGFVFLKMESGTYSEGREYYLDRVLWGEDSSTNNVLQ
notes: not shown: C-terminal 8-His tag
Consider B3, for which the equilibrium dissociation constant (Kd) in test [1] was 31 nM; in test [3], 10 nM; in test [5] it was 0.8 nM. In addition, the koff in test [2] worked out at 0.0137 s⁻¹. The molecule further registered an on-rate constant (kon) in test [4] of 1.2e+06 M⁻¹ s⁻¹.

B4: R17GAG2 (R17 with residues 333 to 337 KGRRK mutated to DGEED), C-terminal His construct (receptor)
chain: GPVGEPVASEINEASKVSSRLLTQDILFRKDRQATISLPIKLPVEDIITQTCDKITYGPLKFLDLLEKETAVLPLSTDITCPACLGRAVLVGKWECPAHVAVNESDLTVFGPNKEEHVPQFVTVQQPSDGKMQRLFFAKFLGTEESLAVLRVPGPDGHLCIQEALIHFKELSGAGVCSLWKANDSREEGLEMKQVDCLETTVLENQTCIATTLSKKIYHRLYCGERLMTGGQVSTRVLLTALGFYKRQPYTFHRVPKGMVYVHLIDSGSEDYMEYSECEEVTPGRYEDKQISYTFYTDLFQTADGEPVLASVWGTSGLKDSAYESCAFVIPTDGEEDLVPRRIMSKCYPFRLTYHPSTMTVRLDVRVEKHHGATDQGFVFLKMESGTYSEGREYYLDRVLWGEDSSTNNVLQ
notes: as for B3
Consider B4, for which the Kd in test [1] came to 40 nM; in test [3], 9.5 nM; in test [5] it was 0.31 nM. The same molecule registered a koff in test [2] of 0.012 s⁻¹. Besides, the association rate constant (kon) in test [4] amounted to 1.2e+06 M⁻¹ s⁻¹.
